In article PMC12401731:

Assays:
[1] = target: HIV-1 RT p66 with TEV-cleavable N-terminal His tag (HTp66) (HIV-1); experiment: cross-linking + other: mass photometry
[2] = target: HIV-1 RT p66 with TEV-cleavable N-terminal His tag (HTp66) (HIV-1); experiment: mass photometry
HTp66 K259A (HIV-1) = experiment: mass photometry

Row | Substance | percent of the population as dimer [1] [%] | percent dimer at 500 nM JLJ648 [2] [%] | percent dimer at 500 nM JLJ648 (HTp66 K259A (HIV-1)) [%]
1 | HIV-1 RT p66 with TEV-cleavable N-terminal His tag (HTp66) (enzyme) | 26 | 58 | –
2 | HTp66 K259A (enzyme) | – | – | 52
